Literature values in patent US7323168B2, “Immunotherapy for chronic myelocytic leukemia” (Immunomedics, Inc., priority 2000, dated 2008).

System: IFN-γ levels
Conditions: single intravenous dose 42.5 μg/kilogram, rhesus monkeys

B1: recombinant IL-12: recombinant interleukin-12 (protein, UniProt P29459 23-219; P29460 23-328, looked up)
Interleukin-12 subunit alpha: RNLPVATPDPGMFPCLHHSQNLLRAVSNMLQKARQTLEFYPCTSEEIDHEDITKDKTSTVEACLPLELTKNESCLNSRETSFITNGSCLASRKTSFMMALCLSSIYEDLKMYQVEFKTMNAKLLMDPKRQIFLDQNMLAVIDELMQALNFNSETVPQKSSLEEPDFYKTKIKLCILLHAFRIRAVTIDRVMSYLNAS
Interleukin-12 subunit beta: IWELKKDVYVVELDWYPDAPGEMVVLTCDTPEEDGITWTLDQSSEVLGSGKTLTIQVKEFGDAGQYTCHKGGEVLSHSLLLLHKKEDGIWSTDILKDQKEPKNKTFLRCEAKNYSGRFTCWWLTTISTDLTFSVKSSRGSSDPQGVTCGAATLSAERVRGDNKEYEYSVECQEDSACPAAEESLPIEVMVDAVHKLKYENYTSSFFIRDIIKPDPPKNLQLKPLKNSRQVEVSWEYPDTWSTPHSYFSLTFCVQVQGKSKREKKDRVFTDKTSATVICRKNASISVRAQDRYYSSSWSEWASVPCS
Which IFN-γ levels does the source give for B1 here?
Its IFN-γ levels is “elevated”.
